Data set [1] concerns CC(=O)OCC1=C(C(=O)O)N2C(=O)[C@@H](NC(=O)Cc3cccs3)[C@H]2SC1. In words: purified protein. To be noted: 50 mM HEPES, pH 7.5, 150 mM NaCl, 10 μM ZnCl2, 37 °C.
The subject of data set [2] is C[C@@H](O)[C@H]1C(=O)N2C(C(=O)O)=C(SCCN=CN)C[C@H]12. The data set can be described thus: purified protein. The note with it: 50 mM HEPES, pH 7.5, 150 mM NaCl, 10 μM ZnCl2, 37 °C.
The test system of data set [3] is C[C@@H](O)[C@H]1C(=O)N2C(C(=O)O)=C(S[C@@H]3CN[C@H](C(=O)N(C)C)C3)[C@H](C)[C@H]12. The data set can be described thus: purified protein. The note with it: 50 mM HEPES, pH 7.5, 150 mM NaCl, 10 μM ZnCl2, 37 °C.
The target in a further data set is SPS-1 (Sediminispirochaeta smaragdinae, UniProt E1R245). The note with it: read-out: SPS-1 / Km; 50 mM HEPES, pH 7.5, 150 mM NaCl, 10 μM ZnCl2, 37 °C.

As usually defined, the kcat is the number of substrate molecules converted per active site and unit of time at saturation. One may read the kcat/Km as the turnover number divided by the Michaelis constant.

SPS-1, sequence (E1R245 32-276 limits assumed): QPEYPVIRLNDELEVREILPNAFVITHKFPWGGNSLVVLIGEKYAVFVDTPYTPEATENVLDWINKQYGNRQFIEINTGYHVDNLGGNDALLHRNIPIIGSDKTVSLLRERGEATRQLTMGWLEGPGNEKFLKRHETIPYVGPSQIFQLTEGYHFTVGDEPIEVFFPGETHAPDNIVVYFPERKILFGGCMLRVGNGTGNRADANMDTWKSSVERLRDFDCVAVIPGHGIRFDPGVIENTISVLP

Regarding “SPS-1 (Sediminispirochaeta smaragdinae DSM 11293)”, in data set [1], the Km stood at 110 ± 20 µM, the kcat is 3.1 ± 0.1 s⁻¹ and the kcat/Km came out at 27000 M⁻¹ s⁻¹. In data set [2], the Km stood at 290 ± 50 µM, the kcat was found to be 470 ± 60 s⁻¹ and the kcat/Km worked out at 1.63e+06 M⁻¹ s⁻¹. Moreover, in data set [3], the Km was 170 ± 30 µM, the kcat was determined as 520 ± 50 s⁻¹ and the kcat/Km turned out to be 3e+06 M⁻¹ s⁻¹.
chromacef: on SPS-1, the Km turned out to be 120 ± 9 µM.

(Values after PMC6314204 (Biochemistry, 2018).)
